molecular target: T1, Alexa 647 labeled PHD2 (catalytic / prolyl-hydroxylase domain, residues 181-426) (human, UniProt Q9GZT9 181-426, Alexa Fluor 647 N-hydroxysuccinimide ester dye, 1-2 dye molecules per protein molecule); assay: MST; 25 nM Alexa 647 labeled PHD2, unlabeled peptide in 16 two-fold dilutions; room temperature; MST Buffer 50 mM Tris-HCl pH 7.5, 1 mM NOG, 10 µM FeSO4, 5 mg/ml BSA mixed 1:1 with peptide in 50 mM Tris-HCl pH 8.0; 1:1 Kd model; triplicate; settings: both partners purified
T1 construct: PHD2, prolyl-hydroxylase domain (catalytic domain), residues 181-426, from pET-46-HIS6-PHD2; Same construct as m2, dye-labeled for MST; also called PHD2-647; source: E. coli BL21(DE3), purified (Ni-NTA, thrombin cleavage, Superdex 75), labeled with Alexa Fluor 647 NHS ester
T1 sequence (Q9GZT9 181-426): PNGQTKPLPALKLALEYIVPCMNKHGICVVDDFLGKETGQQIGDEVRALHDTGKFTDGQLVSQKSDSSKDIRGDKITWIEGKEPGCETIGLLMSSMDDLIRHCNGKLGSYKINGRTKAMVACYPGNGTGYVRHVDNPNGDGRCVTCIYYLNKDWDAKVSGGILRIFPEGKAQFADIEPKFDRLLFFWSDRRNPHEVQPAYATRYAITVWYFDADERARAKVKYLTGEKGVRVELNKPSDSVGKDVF

Kd [µM]	Binder
381 ± 50	Ac-ELDLETLAPYIPMDGEYFQL-NH2 (peptide, UniProt Q99814 523-542, looked up, HIF2α (EPAS1) CODD peptide, human, as m3 with the disease mutation D539Y (Class 1); also called HIF2α D539Y; source: synthetic peptide (Genscript, ≥95% purity)) [HIF2α-CODD D539Y peptide]
345 ± 247	Ac-ELDLETLAPCIPMDGEDFQL-NH2 (peptide, UniProt Q99814 523-542, looked up, HIF2α (EPAS1) CODD peptide, human, as m3 with the disease mutation Y532C; also called HIF2α Y532C; source: synthetic peptide (Genscript, ≥95% purity)) [HIF2α-CODD Y532C peptide]
203 ± 25	Ac-ELDLETLAPYIPTDGEDFQL-NH2 (peptide, UniProt Q99814 523-542, looked up, HIF2α (EPAS1) CODD peptide, human, as m3 with the disease mutation M535T (Class 2); also called HIF2α M535T; source: synthetic peptide (Genscript, ≥95% purity)) [HIF2α-CODD M535T peptide]
760 ± 274	Ac-ELDLETLAPYIPMDGENFQL-NH2 (peptide, UniProt Q99814 523-542, looked up, HIF2α (EPAS1) CODD peptide, human, as m3 with the disease mutation D539N (Class 1); also called HIF2α D539N; source: synthetic peptide (Genscript, ≥95% purity)) [HIF2α-CODD D539N peptide]
167 ± 29	Ac-ELDLETLAPYVPMDGEDFQL-NH2 (peptide, UniProt Q99814 523-542, looked up, HIF2α (EPAS1) CODD peptide, human, as m3 with the disease mutation I533V (Class 2); also called HIF2α I533V; source: synthetic peptide (Genscript, ≥95% purity)) [HIF2α-CODD I533V peptide]
83 ± 9	Ac-ELDLETLAPYIPMDWEDFQL-NH2 (peptide, UniProt Q99814 523-542, looked up, HIF2α (EPAS1) CODD peptide, human, as m3 with the disease mutation G537W (Class 2); also called HIF2α G537W; source: synthetic peptide (Genscript, ≥95% purity)) [HIF2α-CODD G537W peptide]
221 ± 19	Ac-ELDLETLAPYILMDGEDFQL-NH2 (peptide, UniProt Q99814 523-542, looked up, HIF2α (EPAS1) CODD peptide, human, as m3 with the disease mutation P534L (Class 2); also called HIF2α P534L; source: synthetic peptide (Genscript, ≥95% purity)) [HIF2α-CODD P534L peptide]
175 ± 20	Ac-ELDLETLAPYIPMDREDFQL-NH2 (peptide, UniProt Q99814 523-542, looked up, HIF2α (EPAS1) CODD peptide, human, as m3 with the disease mutation G537R (Class 2); also called HIF2α G537R; source: synthetic peptide (Genscript, ≥95% purity)) [HIF2α-CODD G537R peptide]
41 ± 5	Ac-ELDLETLAPHIPMDGEDFQL-NH2 (peptide, UniProt Q99814 523-542, looked up, HIF2α (EPAS1) CODD peptide, human, as m3 with the disease mutation Y532H (Class 2); also called HIF2α Y532H; source: synthetic peptide (Genscript, ≥95% purity)) [HIF2α-CODD Y532H peptide]
229 ± 25	Ac-ELDLETLAPYIPMDGEDLQL-NH2 (peptide, UniProt Q99814 523-542, looked up, HIF2α (EPAS1) CODD peptide, human, as m3 with the disease mutation F540L (Class 2); also called HIF2α F540L; source: synthetic peptide (Genscript, ≥95% purity)) [HIF2α-CODD F540L peptide]
23 ± 2	Ac-ELDLEMLAPYIPMDGEDFQL-NH2 (peptide, UniProt Q99814 523-542, looked up, HIF2α (EPAS1) CODD peptide, human, as m3 with T528M; also called HIF2α T528M; source: synthetic peptide (Genscript, ≥95% purity)) [HIF2α-CODD T528M peptide]
13 ± 2	Ac-ELDLETLAPYIPMDEDFQL-NH2 (peptide, UniProt Q99814 523-542, looked up, HIF2α (EPAS1) CODD peptide, human, as m3 without G537; also called HIF2α ΔG537; source: synthetic peptide (Genscript, ≥95% purity)) [HIF2α-CODD ΔG537 peptide]

From publication PMC10902354, “Deficiency in PHD2-mediated hydroxylation of HIF2α underlies Pacak-Zhuang syndrome” (Communications Biology, 2024)
